Patent US20250332275A1, “Branched Polypeptide Carrier for Efficient Nucleic Acid Delivery and Its Variants” (SUZHOU HEALIRNA BIOTECHNOLOGY CO., LTD., priority 2022, published 2025)
Ends that are not written are not given here.

System: mRNA
Test: Agarose gel electrophoresis of branched polypeptide mixed with mRNA
Format: physicochemical
Conditions: 1.5% agarose, 190 V, 20 minutes
Method: A 1.5% agarose gel was prepared by dissolving agarose in a TBE buffer using a microwave. After adding the sub-green dye, the solution was poured into the gel plate, and a comb was inserted. Polypeptide Sequences 9-12 samples were each mixed with mRNA and then mixed with the sample loading buffer in a 1:1 ratio and set aside after thorough mixing. The gel was loaded with Marker and the samples, then subjected to electrophoresis at 190 V for 20 minutes, and images were captured using a gel imaging system.

[1] = polypeptide with mRNA at a 1:1 mass ratio
[2] = polypeptide with mRNA at a 1:2 mass ratio

Row | Substance | retention of complex in sample well (mRNA encapsulation, FIG. 7) [1] | retention of complex in sample well (mRNA encapsulation, FIG. 7) [2]
1 | K(LAALAALAALAALAA)KK(KSKKSKKSKC)KK(LAALAALAALAALAA)KK(KSKKSKKSKC)KK(LAALAALAALAALAA) (chain 1 KKKKKKKKK; chain 2 AALAALAALAALAAL; chain 3 CKSKKSKKSK; also: branched: C-termini of three chain 2 copies amide-linked to side chains of Lys1, Lys5, Lys9 of chain 1, C-termini of two chain 3 copies amide-linked to side chains of Lys3, Lys7 of chain 1) [Polypeptide Sequence 12] | remained within the sample wells | remained within the sample wells
2 | K(LAALAALAALAALAAC)KK(KDKDKDKDKDKD)KK(KDKDKDKDKDKD)KK(LAALAALAALAALAAC) (chain 1 KKKKKKK; chain 2 CAALAALAALAALAAL; chain 3 DKDKDKDKDKDK; also: branched: C-termini of two chain 2 copies amide-linked to side chains of Lys1, Lys7 of chain 1, C-termini of two chain 3 copies amide-linked to side chains of Lys3, Lys5 of chain 1) [Polypeptide Sequence 11] | remained within the sample wells | remained within the sample wells
3 | K(LAALAALAALAALAALAALAAC)KK(KSKKSKKSKKSKKSK)KK(LAALAALAALAALAALAALAAC) (chain 1 KKKKK; chain 2 CAALAALAALAALAALAALAAL; also: branched: C-termini of two chain 2 copies amide-linked to side chains of Lys1, Lys5 of chain 1, C-terminus of chain 3 amide-linked to side chain of Lys3 of chain 1) [Polypeptide Sequence 10] | remained within the sample wells | remained within the sample wells
4 | K(LAALAALAALAALAALAALAAC)KKKK(LAALAALAALAALAALAALAAC) (chain 1 KKKKK; chain 2 CAALAALAALAALAALAALAAL; also: branched: C-termini of two chain 2 copies amide-linked to side chains of Lys1, Lys5 of chain 1) [Polypeptide Sequence 9] | remained within the sample wells | remained within the sample wells
